B1: target 1 complement block 3-9 (mixed)
RNA 1: CACCCGUGCAAAAAUGCAGGGGUCUAAAACUGAGCGGAUAACCUCUCUAUGG
RNA 2: GGGAAUGGAUCCACAUCUACGAAUUCGUACCAUAGAGAGGUUUAGGCGACACCGAGAUCGGAAGAGCACACGU
B2: target 1 MT 5'PFS GGG 3'PFS UUA (mixed)
RNA 1: CACCCGUGCAAAAAUGCAGGGGUCUAAAACUGAGCGGAUAACCUCUCUAUGG
RNA 2: GGGAAUGGAUCCACAUCUACGAAUUCGGGCCAUAGAGAGGUUAUCCGCUCAUUAAGAUCGGAAGAGCACACGU
B3: target 1 MT 5'PFS GGG 3'PFS UUU (mixed)
RNA 1: CACCCGUGCAAAAAUGCAGGGGUCUAAAACUGAGCGGAUAACCUCUCUAUGG
RNA 2: GGGAAUGGAUCCACAUCUACGAAUUCGGGCCAUAGAGAGGUUAUCCGCUCAUUUAGAUCGGAAGAGCACACGU
B4: target 1 del1 (mixed)
RNA 1: CACCCGUGCAAAAAUGCAGGGGUCUAAAACUGAGCGGAUAACCUCUCUAUGG
RNA 2: GGGAAUGGAUCCACAUCUACGAAUUCGUACCAUAGAGAGGUUAUCCGCUCCCGAGAUCGGAAGAGCACACGU
B5: target 1 MT 5'PFS UAG 3'PFS AAG (mixed)
RNA 1: CACCCGUGCAAAAAUGCAGGGGUCUAAAACUGAGCGGAUAACCUCUCUAUGG
RNA 2: GGGAAUGGAUCCACAUCUACGAAUUCUAGCCAUAGAGAGGUUAUCCGCUCAAAGAGAUCGGAAGAGCACACGU
B6: target 1 MT 5'PFS AAG 3'PFS UUG (mixed)
RNA 1: CACCCGUGCAAAAAUGCAGGGGUCUAAAACUGAGCGGAUAACCUCUCUAUGG
RNA 2: GGGAAUGGAUCCACAUCUACGAAUUCAAGCCAUAGAGAGGUUAUCCGCUCAUUGAGAUCGGAAGAGCACACGU
B7: target 1 MT 5'PFS UCG 3'PFS UUU (mixed)
RNA 1: CACCCGUGCAAAAAUGCAGGGGUCUAAAACUGAGCGGAUAACCUCUCUAUGG
RNA 2: GGGAAUGGAUCCACAUCUACGAAUUCUCGCCAUAGAGAGGUUAUCCGCUCAUUUAGAUCGGAAGAGCACACGU
B8: target 1 MT 5'PFS GGG 3'PFS CAC (mixed)
RNA 1: CACCCGUGCAAAAAUGCAGGGGUCUAAAACUGAGCGGAUAACCUCUCUAUGG
RNA 2: GGGAAUGGAUCCACAUCUACGAAUUCGGGCCAUAGAGAGGUUAUCCGCUCACACAGAUCGGAAGAGCACACGU
B9: target 1 MT 5'PFS UAG 3'PFS AAC (mixed)
RNA 1: CACCCGUGCAAAAAUGCAGGGGUCUAAAACUGAGCGGAUAACCUCUCUAUGG
RNA 2: GGGAAUGGAUCCACAUCUACGAAUUCUAGCCAUAGAGAGGUUAUCCGCUCAAACAGAUCGGAAGAGCACACGU
B10: target 1 MT 5'PFS CCU 3'PFS AUA (mixed)
RNA 1: CACCCGUGCAAAAAUGCAGGGGUCUAAAACUGAGCGGAUAACCUCUCUAUGG
RNA 2: GGGAAUGGAUCCACAUCUACGAAUUCCCUCCAUAGAGAGGUUAUCCGCUCAAUAAGAUCGGAAGAGCACACGU
B11: target 1 MT 5'PFS GGG 3'PFS CAG (mixed)
RNA 1: CACCCGUGCAAAAAUGCAGGGGUCUAAAACUGAGCGGAUAACCUCUCUAUGG
RNA 2: GGGAAUGGAUCCACAUCUACGAAUUCGGGCCAUAGAGAGGUUAUCCGCUCACAGAGAUCGGAAGAGCACACGU
B12: target 1 MT 5'PFS AGC 3'PFS AAA (mixed)
RNA 1: CACCCGUGCAAAAAUGCAGGGGUCUAAAACUGAGCGGAUAACCUCUCUAUGG
RNA 2: GGGAAUGGAUCCACAUCUACGAAUUCAGCCCAUAGAGAGGUUAUCCGCUCAAAAAGAUCGGAAGAGCACACGU
B13: target 1 MT 5'PFS GGG 3'PFS CAU (mixed)
RNA 1: CACCCGUGCAAAAAUGCAGGGGUCUAAAACUGAGCGGAUAACCUCUCUAUGG
RNA 2: GGGAAUGGAUCCACAUCUACGAAUUCGGGCCAUAGAGAGGUUAUCCGCUCACAUAGAUCGGAAGAGCACACGU
B14: target 1 U10A,G15C (mixed)
RNA 1: CACCCGUGCAAAAAUGCAGGGGUCUAAAACUGAGCGGAUAACCUCUCUAUGG
RNA 2: GGGAAUGGAUCCACAUCUACGAAUUCGUACCAUAGACAGGUAAUCCGCUCACCGAGAUCGGAAGAGCACACGU
B15: target 1 MT 5'PFS GCU 3'PFS AGA (mixed)
RNA 1: CACCCGUGCAAAAAUGCAGGGGUCUAAAACUGAGCGGAUAACCUCUCUAUGG
RNA 2: GGGAAUGGAUCCACAUCUACGAAUUCGCUCCAUAGAGAGGUUAUCCGCUCAAGAAGAUCGGAAGAGCACACGU
B16: target 1 MT 5'PFS GGG 3'PFS UUC (mixed)
RNA 1: CACCCGUGCAAAAAUGCAGGGGUCUAAAACUGAGCGGAUAACCUCUCUAUGG
RNA 2: GGGAAUGGAUCCACAUCUACGAAUUCGGGCCAUAGAGAGGUUAUCCGCUCAUUCAGAUCGGAAGAGCACACGU
B17: target 1 A1C,C4A (mixed)
RNA 1: CACCCGUGCAAAAAUGCAGGGGUCUAAAACUGAGCGGAUAACCUCUCUAUGG
RNA 2: GGGAAUGGAUCCACAUCUACGAAUUCGUACCAUAGAGAGGUUAUCCGAUCCCCGAGAUCGGAAGAGCACACGU
B18: target 1 MT 5'PFS UAG 3'PFS AAA (mixed)
RNA 1: CACCCGUGCAAAAAUGCAGGGGUCUAAAACUGAGCGGAUAACCUCUCUAUGG
RNA 2: GGGAAUGGAUCCACAUCUACGAAUUCUAGCCAUAGAGAGGUUAUCCGCUCAAAAAGAUCGGAAGAGCACACGU
B19: target 1 insA 3' of 17,insA 3' of 4 (mixed)
RNA 1: CACCCGUGCAAAAAUGCAGGGGUCUAAAACUGAGCGGAUAACCUCUCUAUGG
RNA 2: GGGAAUGGAUCCACAUCUACGAAUUCGUACCAUAGAAGAGGUUAUCCGCAUCACCGAGAUCGGAAGAGCACACGU
B20: target 1 MT 5'PFS CCU 3'PFS AUC (mixed)
RNA 1: CACCCGUGCAAAAAUGCAGGGGUCUAAAACUGAGCGGAUAACCUCUCUAUGG
RNA 2: GGGAAUGGAUCCACAUCUACGAAUUCCCUCCAUAGAGAGGUUAUCCGCUCAAUCAGAUCGGAAGAGCACACGU
B21: target 1 MT 5'PFS GCA 3'PFS UUU (mixed)
RNA 1: CACCCGUGCAAAAAUGCAGGGGUCUAAAACUGAGCGGAUAACCUCUCUAUGG
RNA 2: GGGAAUGGAUCCACAUCUACGAAUUCGCACCAUAGAGAGGUUAUCCGCUCAUUUAGAUCGGAAGAGCACACGU
B22: target 1 MT 5'PFS GGG 3'PFS CAA (mixed)
RNA 1: CACCCGUGCAAAAAUGCAGGGGUCUAAAACUGAGCGGAUAACCUCUCUAUGG
RNA 2: GGGAAUGGAUCCACAUCUACGAAUUCGGGCCAUAGAGAGGUUAUCCGCUCACAAAGAUCGGAAGAGCACACGU
B23: target 1 MT 5'PFS AAG 3'PFS UUC (mixed)
RNA 1: CACCCGUGCAAAAAUGCAGGGGUCUAAAACUGAGCGGAUAACCUCUCUAUGG
RNA 2: GGGAAUGGAUCCACAUCUACGAAUUCAAGCCAUAGAGAGGUUAUCCGCUCAUUCAGAUCGGAAGAGCACACGU
B24: target 1 insC 3' of 16,insA 3' of 8 (mixed)
RNA 1: CACCCGUGCAAAAAUGCAGGGGUCUAAAACUGAGCGGAUAACCUCUCUAUGG
RNA 2: GGGAAUGGAUCCACAUCUACGAAUUCGUACCAUAGACGAGGUUAUACCGCUCACCGAGAUCGGAAGAGCACACGU
B25: target 1 MT 5'PFS UCG 3'PFS CUA (mixed)
RNA 1: CACCCGUGCAAAAAUGCAGGGGUCUAAAACUGAGCGGAUAACCUCUCUAUGG
RNA 2: GGGAAUGGAUCCACAUCUACGAAUUCUCGCCAUAGAGAGGUUAUCCGCUCACUAAGAUCGGAAGAGCACACGU
B26: target 1 MT 5'PFS GGG 3'PFS UUG (mixed)
RNA 1: CACCCGUGCAAAAAUGCAGGGGUCUAAAACUGAGCGGAUAACCUCUCUAUGG
RNA 2: GGGAAUGGAUCCACAUCUACGAAUUCGGGCCAUAGAGAGGUUAUCCGCUCAUUGAGAUCGGAAGAGCACACGU
B27: target 1 MT 5'PFS GCU 3'PFS AGC (mixed)
RNA 1: CACCCGUGCAAAAAUGCAGGGGUCUAAAACUGAGCGGAUAACCUCUCUAUGG
RNA 2: GGGAAUGGAUCCACAUCUACGAAUUCGCUCCAUAGAGAGGUUAUCCGCUCAAGCAGAUCGGAAGAGCACACGU

For orientation: Kd means a measure of binding affinity in units of concentration. Read a high Kd as lower affinity.

The data set deals with T1, EsCas13d, nuclease-dead (Eubacterium siraeum, UniProt B0MS50, R295A;H300A;R849A;H854A).
T1 sequence: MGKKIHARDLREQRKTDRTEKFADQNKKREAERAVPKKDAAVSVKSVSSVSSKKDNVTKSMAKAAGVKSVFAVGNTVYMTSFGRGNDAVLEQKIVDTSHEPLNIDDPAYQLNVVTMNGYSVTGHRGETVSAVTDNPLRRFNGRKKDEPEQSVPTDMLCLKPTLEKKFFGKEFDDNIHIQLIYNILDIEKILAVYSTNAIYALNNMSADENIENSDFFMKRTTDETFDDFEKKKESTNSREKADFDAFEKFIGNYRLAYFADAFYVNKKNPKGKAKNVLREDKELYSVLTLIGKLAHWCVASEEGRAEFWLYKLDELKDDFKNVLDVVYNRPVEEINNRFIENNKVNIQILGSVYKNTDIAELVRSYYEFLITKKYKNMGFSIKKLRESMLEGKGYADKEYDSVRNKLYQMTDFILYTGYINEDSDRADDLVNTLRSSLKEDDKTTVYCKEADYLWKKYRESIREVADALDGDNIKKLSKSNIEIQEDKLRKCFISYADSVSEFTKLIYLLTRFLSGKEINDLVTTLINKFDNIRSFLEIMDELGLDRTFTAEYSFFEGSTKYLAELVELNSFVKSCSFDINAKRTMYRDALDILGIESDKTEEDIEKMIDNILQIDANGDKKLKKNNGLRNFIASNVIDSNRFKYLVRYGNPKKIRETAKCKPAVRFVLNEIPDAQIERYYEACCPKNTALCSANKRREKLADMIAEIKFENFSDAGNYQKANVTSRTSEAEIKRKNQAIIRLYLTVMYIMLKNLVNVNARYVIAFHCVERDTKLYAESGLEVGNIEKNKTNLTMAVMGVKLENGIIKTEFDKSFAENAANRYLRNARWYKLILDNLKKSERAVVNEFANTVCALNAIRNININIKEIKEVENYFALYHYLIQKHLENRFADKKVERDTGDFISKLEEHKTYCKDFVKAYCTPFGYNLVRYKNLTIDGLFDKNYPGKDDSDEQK
Nature of the data set: crRNA (strand 1, pre-loaded); Mg2+; 40 mM Tris-HCl pH 7.5, 150 mM NaCl, 6 mM MgCl2, 1 mM DTT, 0.1% Tween-20, 0.2 mg/ml BSA; 25 C; 10 min per concentration, then washed. To be noted: tags: His6-TwinStrep-SUMO cleaved; N-terminal SNAP kept (SNAP-Surface 488); label: 3' end held by stalled T7 RNA polymerase.
In turn, B1 gave a Kd of 8.8 ± 0.4 nM.
To B2 belongs 16.8 ± 2.55 nM; to B3, 14.7 ± 2.05 nM; to B4, 39 ± 9 nM.
The same measure for B5: 45.5 ± 13 nM.
Take B6: the affinity, expressed as Kd, was 13.5 ± 2 nM.
To B7 belongs 24 ± 5 nM.
Turning to B8, the Kd was ~55.5 nM.
The same measure for B9: 34 ± 6 nM.
Regarding B10, binding was characterised by a dissociation constant (Kd) of 21 ± 5 nM.
To B11 belongs 32 ± 5.5 nM.
The same measure for B12: ~52 nM.
For B13, the Kd was found to be 32 ± 12 nM.
In the case of B14, the Kd came out at 98 ± 17 nM.
B15 showed a Kd of 56 ± 16.5 nM.
To B16 belongs 16.4 ± 1.95 nM; to B17, 7.5 ± 1 nM; to B18, 34 ± 7 nM.
On to B19, for which binding was put at a Kd of 10 ± 0.7 nM.
To B20 belongs 21 ± 8 nM; to B21, 11 ± 2.4 nM; to B22, 50.5 ± 21.5 nM.
To B23 belongs 16 ± 6 nM; to B24, 56 ± 12 nM.
B25 returned a Kd of 29 ± 7 nM.
B26 returned a Kd of 7.3 ± 0.45 nM.
B27: the Kd is 36 ± 7 nM.

The values above are taken from paper PMC10786891, “Massively parallel profiling of RNA-targeting CRISPR-Cas13d”.
